Reference: patent US20100233157A1 (published 2010)

T1: Human Fas (CD95) on the cell surface (human, UniProt P25445 26-335)
T1 sequence: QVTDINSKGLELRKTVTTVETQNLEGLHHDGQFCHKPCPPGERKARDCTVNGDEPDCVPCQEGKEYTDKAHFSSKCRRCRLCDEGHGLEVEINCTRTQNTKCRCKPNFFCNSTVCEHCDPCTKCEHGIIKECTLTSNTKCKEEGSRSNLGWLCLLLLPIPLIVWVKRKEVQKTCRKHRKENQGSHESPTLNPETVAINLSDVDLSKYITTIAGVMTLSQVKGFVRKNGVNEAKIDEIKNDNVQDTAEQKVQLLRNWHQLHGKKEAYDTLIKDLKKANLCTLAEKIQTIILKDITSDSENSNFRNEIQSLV

T2: Chimpanzee Fas on the cell surface (chimpanzee, UniProt K6ZIR5 26-335)
T2 construct: also called Fas on chimpanzee B cell line
T2 sequence: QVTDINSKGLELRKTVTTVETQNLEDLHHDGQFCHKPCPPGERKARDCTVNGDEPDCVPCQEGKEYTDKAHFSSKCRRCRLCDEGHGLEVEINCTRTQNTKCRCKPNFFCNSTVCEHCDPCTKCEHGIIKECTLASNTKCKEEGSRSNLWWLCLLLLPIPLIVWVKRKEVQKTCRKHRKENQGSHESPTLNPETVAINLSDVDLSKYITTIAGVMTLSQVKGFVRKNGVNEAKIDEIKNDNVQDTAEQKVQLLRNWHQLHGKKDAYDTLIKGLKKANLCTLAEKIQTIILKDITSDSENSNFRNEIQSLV

T3: Recombinant human soluble Fas receptor (PeproTech, Cat. 310-20) (human, UniProt P25445 17-173)
T3 construct: Bought soluble form; also called sFas; rFas
T3 sequence (looked up): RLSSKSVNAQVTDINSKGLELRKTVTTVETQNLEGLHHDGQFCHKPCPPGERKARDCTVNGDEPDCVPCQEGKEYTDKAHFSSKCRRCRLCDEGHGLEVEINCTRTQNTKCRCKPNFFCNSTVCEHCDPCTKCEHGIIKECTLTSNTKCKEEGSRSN


Columns and labels:
[1] = target: T1, Human Fas (CD95) on the cell surface; test: cell-based or functional assay
[2] = target: T2, Chimpanzee Fas on the cell surface; test: flow cytometry on chimpanzee cells
[3] = target: T3, Recombinant human soluble Fas receptor …; test: SPR (BIAcore 3000), soluble Fas immobilized on CM5 chip, antibody as analyte, bivalent analyte fit
Protocol: The interaction of F45D9 mAb's (γ-γ1 and γ4-isotypes) with immobilized soluble human Fas receptor was monitored by surface plasmon resonance detection using a BIAcore 3000 instrument. Recombinant human soluble Fas receptor (srFas) (PeproTech, cat. 310-20) was immobilized (concentration of 5 ug/ml in immobilization buffer: 10 mM sodium acetate pH 5.0) onto a CM5 sensor chip (BIAcore BR-1001-14) using an Amine Coupling kit (BIAcore, Cat. BR-1000-50), at a surface density of […] resonance units (RU). Deactivation of excess reactive groups on the chip surface was done by adding 1.0 M ethalonamine hydrochloride (pH 8.5). F45D9 mAb's-γ1 mAb were passed over the surface in equilibrium binding experiments at concentrations ranging from […] at a flow rate of 30 ul/min. Dilutions and binding experiments were conducted in 0.01 M HEPES (pH 7.4), 0.15 M NaCl, 3 mM EDTA, and 0.005% P-20 (BIAcore surfactant, BR-1001-88). Between each cycle 100 mM HCl was used to regenerate the surfaces at a flow rate 30 ul/min. KA and KD of F45D9 mAb's were-γ1 mAb was determined by fitting bivalentusing BIAcore models (BIAevaluation).

[4] = target: T1, Human Fas (CD95) on the cell surface; test: flow cytometry on Jurkat cells, FITC anti-human IgG secondary, geometric MFI after background subtraction
Protocol: (§1) Binding of F45D9-γ1 and F45D9-γ4 to the surface of Fas expressing Jurkat and SKW6.4 cells (from ATCC, Jurkat, clone E6-1, ATCC-TIB-152, Human T Leukemia cell line); SKW6.4 cells, ATCC-TIB-215, Human B lymphoblastoid cell line) was explored by immunofluorescence staining and flow cytometry analysis. Cells were cultured in RPMI 1640 medium (GIBCO, Cat. 3105205) supplemented with 2 mM glutamax (GIBCO), 100 UI/mL penicillin, 100 μg/mL streptomycin (Sigma) and 5-10% fetal bovine serum (GIBCO), at 37° C. and 5% CO₂. After washing in PBS Jurkat or SKW6.4 cells (0.2×10⁶ cells/well) were incubated in staining buffer (PBS/1% FBS) containing F45D9-γ1, F45D9-γ4 or human IgG control antibodies (Human IgG1, kappa, Sigma, Cat. I5154 or Human IgG4, kappa, Sigma, Cat. I4639) in a 96-well U-bottom plate for 30 min on ice, in a 100 ul/well volume. Cells were then washed once with staining buffer, and further incubated for 30 min on ice with 1:30 dilution of FITC-conjugated rabbit F(ab′)₂ anti-human IgG (DakoCytomation Cat. F0056). After washing and fixing with 1% formaldehyde in PBS cells were analyzed in a FACScan (Becton Dickinson, Mountain View, Calif.). The reactivity of F45D9-γ1 and F45D9-γ4 to the surface of Jurkat cells was quantified and Geometric Mean Fluorescence Intensity (MFI) after background subtraction (FIG. 1A) and histograms (FIG. 1B) are shown. […]

[5] = target: T1, Human Fas (CD95) on the cell surface; test: flow cytometry on SKW6.4 cells, FITC anti-human IgG secondary, geometric MFI after background subtraction
Protocol: as §1

share of binding capacity on Jurkat cells at which complete blocking of FasL-induced apoptosis is achieved [1] [%]	IC50 of inhibition of rhFasL-induced apoptosis in SKW6.4 cells (Annexin-V/PI, flow cytometry) [1] [nM]	IC50 of inhibition of rhFasL-induced apoptosis in activated human T cells (Annexin-V/PI, flow cytometry) [1] [nM]	binding result [2]	Kd [3] [nM]	EC50 (read off the curve) [4] [µg/mL]	EC50 (read off the curve) [5] [µg/mL]	Binder
≥ 12.5							F45D9-γ1 F(ab′)2 fragment (other) VH: QVQLQQWGAGLLKPSETLSLICAVYGGSFSTYYWTWIRQPPGKGLEWIGEINHRGTTNYSPSLKSRVTISVDTSKNHISLNLTSVTAADTALYYCARGLLWIGEGDYGLDVWGQGTTVTVSS VL: DIQMTQSPSSLSASVGDRVTITCRASQGIRRWLAWYQQKPEKAPKSLIYAASSLQSGVPSRFSGSGSGTDFTLTISSLQPEDFATYYCQQYNSYPYTFGQGTKLEIKR
≥ 12.5	0.2	0.02	binds	0.0587	~0.6	~0.7	F45D9-γ4 mAb (recombinant human mAb T19/B5-1F9, gamma-4 isotype) (antibody, V domains shown, Whole human IgG4 (γ4P allotype vector pIESRαγ4P) with human kappa light chain, made in CHO DG44 cells; also called IgG4; T19/L22/B5-1F9) VH: QVQLQQWGAGLLKPSETLSLICAVYGGSFSTYYWTWIRQPPGKGLEWIGEINHRGTTNYSPSLKSRVTISVDTSKNHISLNLTSVTAADTALYYCARGLLWIGEGDYGLDVWGQGTTVTVSS VL: DIQMTQSPSSLSASVGDRVTITCRASQGIRRWLAWYQQKPEKAPKSLIYAASSLQSGVPSRFSGSGSGTDFTLTISSLQPEDFATYYCQQYNSYPYTFGQGTKLEIKR
